Measurements taken from US5837813.
Several values for one entry are separate records, joined by “and”; a condition that tells them apart may be missing. Identical values can stand only once.

Legend:
[1] = target: human fibronectin (human) (UniProt P02751); assay: Scatchard analysis (LIGAND), fibronectin on coated fibronectin
[2] = target: human fibronectin (human) (UniProt P02751); assay: Scatchard analysis (LIGAND) of 125I-fibronectin binding to coated fibronectin competed by unlabeled fibronectin; low affinity site
[3] = target: human fibronectin (human) (UniProt P02751); assay: Scatchard analysis (LIGAND) of 125I-fibronectin binding to coated fibronectin competed by unlabeled fibronectin

- binding sites per 1000 fibronectin dimers, high affinity site (sites per 1000 fibronectin dimers) [1]: 1 and 2
- binding sites per fibronectin dimer, low affinity site (sites per fibronectin dimer) [1]: 1 and 2
- Kd [2]: 800 nM
- Kd [3]: 8 nM
Substance: human fibronectin (from UniProt P02751)
